Values quoted from earlier work in paper PMC4212800.

Target: CD4 D1-D2 (Homo sapiens) (UniProt P01730)

- Kd: 0.0825 nM
Substance: Ibalizumab
